According to US20090214427:

What was measured:
[1] = tested on: synthetic peptide HK2p01 (SRFKVWWAAG)
[2] = tested on: synthetic peptide HK2p02 (AARRPFPAPS)
[3] = tested on: synthetic peptide HK2p03 (PARRPFPVTA)
[4] = tested on: synthetic peptide HK2p04 (CFRQGCWVIT)
[5] = tested on: synthetic peptide HK2p06 (CYRMPTCMQRD)

Chain of plasma kallikrein (chain, as listed by the source): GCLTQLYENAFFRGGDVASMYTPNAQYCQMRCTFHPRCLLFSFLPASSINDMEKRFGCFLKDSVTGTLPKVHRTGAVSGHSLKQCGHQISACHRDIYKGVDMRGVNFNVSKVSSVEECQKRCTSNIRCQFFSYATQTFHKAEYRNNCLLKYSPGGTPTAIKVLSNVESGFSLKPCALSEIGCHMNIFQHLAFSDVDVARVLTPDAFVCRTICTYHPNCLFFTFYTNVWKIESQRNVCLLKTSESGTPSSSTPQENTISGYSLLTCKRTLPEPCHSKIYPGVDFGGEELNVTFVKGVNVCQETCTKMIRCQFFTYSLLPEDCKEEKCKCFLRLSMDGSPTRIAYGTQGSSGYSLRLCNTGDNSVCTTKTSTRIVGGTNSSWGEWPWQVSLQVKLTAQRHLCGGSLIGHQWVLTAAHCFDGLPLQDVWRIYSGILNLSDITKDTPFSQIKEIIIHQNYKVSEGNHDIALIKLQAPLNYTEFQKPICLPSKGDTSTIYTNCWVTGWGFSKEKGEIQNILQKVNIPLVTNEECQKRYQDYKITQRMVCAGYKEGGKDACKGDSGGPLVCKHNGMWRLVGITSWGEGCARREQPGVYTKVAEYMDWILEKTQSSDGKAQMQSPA

Substance | enzyme activity (chromogenic substrate) [1] | enzyme activity (chromogenic substrate) [2] | enzyme activity (chromogenic substrate) [3] | enzyme activity of hK2 (chromogenic substrate S-2302) [1] | enzyme activity of hK2 (chromogenic substrate S-2302) [2] | enzyme activity of hK2 (chromogenic substrate S-2302) [3] | enzyme activity of hK2 (chromogenic substrate S-2302) [4] | enzyme activity of hK2 (chromogenic substrate S-2302) [5]
plasma kallikrein | showed no inhibition | showed no inhibition | showed no inhibition |  |  |  |  | 
prostate specific antigen | showed no inhibition | showed no inhibition | showed no inhibition |  |  |  |  | 
recombinant wild-type (wt) human kallikrein 2 |  |  |  | caused a significant reduction of the enzyme activity | caused a significant reduction of the enzyme activity | caused a significant reduction of the enzyme activity | did not show any effect on the enzyme activity of hK2 | did not show any effect on the enzyme activity of hK2
thrombin | showed no inhibition | showed no inhibition | showed no inhibition |  |  |  |  | 
urokinase | showed no inhibition | showed no inhibition | showed no inhibition |  |  |  |  | 
α-chymotrypsin | showed no inhibition | showed no inhibition | showed no inhibition |  |  |  |  | 
